Assay results reported in patent US20070082364A1 (Takeda / Millennium, published 2007).

Tests used:
human GPR8 = human GPR8 (human, UniProt P48146 1-333); test: cell-based or functional assay
human GPR7 = target: T1, human GPR7 (human, UniProt P48145 1-328); test: cell-based or functional assay
T1 sequence: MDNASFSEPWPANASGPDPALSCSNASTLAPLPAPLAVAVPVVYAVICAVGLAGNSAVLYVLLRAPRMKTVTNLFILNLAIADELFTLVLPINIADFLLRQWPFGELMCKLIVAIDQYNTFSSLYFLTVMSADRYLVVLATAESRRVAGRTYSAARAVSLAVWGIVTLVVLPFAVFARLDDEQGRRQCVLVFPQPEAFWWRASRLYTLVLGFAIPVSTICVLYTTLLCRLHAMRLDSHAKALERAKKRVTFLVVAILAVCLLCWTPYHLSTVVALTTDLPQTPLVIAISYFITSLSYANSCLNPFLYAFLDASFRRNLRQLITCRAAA

human GPR8, sequence (P48146 whole entry): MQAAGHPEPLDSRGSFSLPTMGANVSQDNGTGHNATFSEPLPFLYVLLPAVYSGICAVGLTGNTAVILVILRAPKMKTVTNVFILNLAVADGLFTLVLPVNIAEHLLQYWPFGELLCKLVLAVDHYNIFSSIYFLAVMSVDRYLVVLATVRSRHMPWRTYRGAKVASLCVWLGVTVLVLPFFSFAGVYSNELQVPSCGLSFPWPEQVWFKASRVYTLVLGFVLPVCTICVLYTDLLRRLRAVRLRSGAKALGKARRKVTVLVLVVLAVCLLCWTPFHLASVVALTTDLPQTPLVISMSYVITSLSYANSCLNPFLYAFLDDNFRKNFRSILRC

cAMP level in human GPR8-expressed cells, relative to FSK stimulation only (human GPR8): 31%
cAMP level in human GPR7-expressed cells, relative to FSK stimulation only (human GPR7): 46%
B1: human neuropeptide W (1-23) (peptide)
peptide: WYKHVASPRYHTVGRAAGLLMGL
